Assay results published in patent publication US20260109776A1 (Amgen, published 2026).
Read-outs that look alike come from different tables or passages of the source. One block for each binder: values may come before it.

Experiments:
huCD40(1-193) [1] = molecular target: T1, huCD40(1-193) (human, UniProt P25942 21-193); test: Octet, soluble antigen
T1 construct: Soluble form used in Octet; also called human CD40; soluble human CD40

huMSLN(296-598) [2] = molecular target: huMSLN(296-598) (human, UniProt Q13421 296-598); test: Octet, soluble antigen
Target sequence in this assay (Q13421 other isoform, or with tags, fused parts or gaps): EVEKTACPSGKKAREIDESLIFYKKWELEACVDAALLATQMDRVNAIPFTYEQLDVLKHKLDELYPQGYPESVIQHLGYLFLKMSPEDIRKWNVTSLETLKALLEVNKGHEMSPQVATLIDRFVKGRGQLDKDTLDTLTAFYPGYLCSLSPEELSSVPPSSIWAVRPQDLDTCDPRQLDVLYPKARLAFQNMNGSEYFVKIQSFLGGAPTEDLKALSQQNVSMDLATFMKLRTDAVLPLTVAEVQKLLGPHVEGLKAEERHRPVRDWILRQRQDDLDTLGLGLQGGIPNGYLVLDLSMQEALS

cynoCD40(1-193) [3] = molecular target: T2, cynoCD40(1-193) (cynomolgus monkey, UniProt P25942 21-193 (human entry)); test: Octet, soluble antigen
T2 construct: Soluble form used in Octet; also called cynomolgus monkey CD40
T2 chain: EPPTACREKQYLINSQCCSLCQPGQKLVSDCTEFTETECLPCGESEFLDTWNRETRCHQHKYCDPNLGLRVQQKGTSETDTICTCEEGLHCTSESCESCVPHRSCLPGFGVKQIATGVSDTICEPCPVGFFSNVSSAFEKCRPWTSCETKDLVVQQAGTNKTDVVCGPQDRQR

[4] = molecular target: human CD40 on purified human B cells (human, UniProt P25942 21-277); test: cell-based or functional assay
huMSLN(296-598) [5] = molecular target: T3, huMSLN(296-598) (human, UniProt Q13421 296-598); test: Octet
T3 construct: also called soluble human mesothelin
Protocol: (§1) A panel of mesothelin×CD40 bispecific antibodies were generated in the IgG-scFv format (Table 13) and evaluated for binding to soluble forms of human and cynomolgus monkey CD40 and human and cynomolgus monkey mesothelin using the Octet assay (Table 14). Association rate (Kon), disassociation rate (Kdis), and equilibrium binding constant (KD) were calculated. […] These bispecific antibodies were next evaluated for their ability to induce mesothelin-dependent activation of human B cells. CHO cells expressing human mesothelin were seeded into a 96 well plate. The next day varying concentrations of the mesothelin×CD40 IgG-scFv antibodies were added to the wells along with purified human B cells and the plates were incubated for an additional 48 hours. Upregulation of CD86, a marker of CD40-mediated B cell activation, was quantified on B cells by flow cytometry.
T3 sequence (Q13421 other isoform, or with tags, fused parts or gaps): as the sequence (Q13421 other isoform, or with tags, fused parts or gaps) above

cynoCD40(1-193) [6] = molecular target: T4, cynoCD40(1-193) (cynomolgus monkey, UniProt P25942 21-193 (human entry)); test: Octet
T4 construct: also called soluble cynomolgus monkey CD40
T4 chain: T2 chain
Protocol: as §1

cynoMSLN(296-598) = molecular target: T5, cynoMSLN(296-598) (cynomolgus monkey); test: Octet
T5 chain: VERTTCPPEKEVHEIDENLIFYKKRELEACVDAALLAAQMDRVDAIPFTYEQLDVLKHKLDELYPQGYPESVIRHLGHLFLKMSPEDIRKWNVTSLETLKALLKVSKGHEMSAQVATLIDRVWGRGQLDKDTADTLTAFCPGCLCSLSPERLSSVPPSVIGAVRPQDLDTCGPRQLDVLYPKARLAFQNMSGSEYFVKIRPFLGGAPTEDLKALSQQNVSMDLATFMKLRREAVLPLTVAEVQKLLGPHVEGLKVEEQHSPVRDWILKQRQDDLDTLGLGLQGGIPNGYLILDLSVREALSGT
Protocol: as §1

huCD40(1-193) [7] = molecular target: T6, huCD40(1-193) (human, UniProt P25942 21-193); test: Octet
T6 construct: also called soluble human CD40
Protocol: as §1

human CD40 [8] = molecular target: T7, human CD40 (human, UniProt P25942 21-277); test: cell-based or functional assay
human CD40 [9] = molecular target: T7, human CD40; test: cell-based or functional assay; remark: listed apart in the source
[10] = molecular target: T8, soluble recombinant cynomolgus monkey mesothelin (cynomolgus monkey); test: Octet, soluble recombinant cyno MSLN
T8 chain: T5 chain

B1: Anti-CD40xMSLN IgG-Fab molecule 5970-1 (bispecific antibody)
chain 1: QVQLVESGGGLVKPGGSLRLSCAASGFTFSDYYMSWIRQAPGKGLEWISYISSSESIIYYVDSVKGRFTISRDNAKNSLYLQMNSLRAEDTAVYYCARDVGSHFDYWGQGTLVTVSS
chain 2: DIQMTQSPSSVSASVGDRVTITCRASQDISRWLAWYQQKPGKAPKLLISAASRLQSGVPSRFSGSGSGTDFTLTISSLQPEDFAIYYCQQAKSFPRTFGQGTKVEIKR
chain 3: QVQLVESGGGVVQPGRSLRLSCAASGFTFSSHGMHWVRQPPGKGLEWVAVIWYDGSNEYYGDSVKGRFTISRDNSKNTLYLQMNSLRVEDTAVYYCTRGGGHWNYEGHYYGMDVWGQGTTVTVSS
chain 4: QAVPTQPSSLSASPGASASLTCTLRSGINVGSSRIYWYQQKPGSPPQFLLRYTSDSDKLQGSGVPSRFSGSKDASANAGLLLISGLQSEDEADYYCMIWHSSAVVFGGGTKLTVLG
Kd (huCD40(1-193) [1]): 1600 pM
koff (huCD40(1-193) [1]): 0.000395 s⁻¹
kon (huCD40(1-193) [1]): 245000 M⁻¹ s⁻¹
Kd (huMSLN(296-598) [2]): 300 pM
koff (huMSLN(296-598) [2]): 0.000258 s⁻¹
kon (huMSLN(296-598) [2]): 774000 M⁻¹ s⁻¹
Kd (cynoCD40(1-193) [3]): 1300 pM
koff (cynoCD40(1-193) [3]): 0.000208 s⁻¹
kon (cynoCD40(1-193) [3]): 163000 M⁻¹ s⁻¹
EC50 (nM), CD86 upregulation on human B cells in the presence of CHO cells expressing human mesothelin [4]: 0.005 nM

B5: 6052-2 (bispecific antibody)
heavy: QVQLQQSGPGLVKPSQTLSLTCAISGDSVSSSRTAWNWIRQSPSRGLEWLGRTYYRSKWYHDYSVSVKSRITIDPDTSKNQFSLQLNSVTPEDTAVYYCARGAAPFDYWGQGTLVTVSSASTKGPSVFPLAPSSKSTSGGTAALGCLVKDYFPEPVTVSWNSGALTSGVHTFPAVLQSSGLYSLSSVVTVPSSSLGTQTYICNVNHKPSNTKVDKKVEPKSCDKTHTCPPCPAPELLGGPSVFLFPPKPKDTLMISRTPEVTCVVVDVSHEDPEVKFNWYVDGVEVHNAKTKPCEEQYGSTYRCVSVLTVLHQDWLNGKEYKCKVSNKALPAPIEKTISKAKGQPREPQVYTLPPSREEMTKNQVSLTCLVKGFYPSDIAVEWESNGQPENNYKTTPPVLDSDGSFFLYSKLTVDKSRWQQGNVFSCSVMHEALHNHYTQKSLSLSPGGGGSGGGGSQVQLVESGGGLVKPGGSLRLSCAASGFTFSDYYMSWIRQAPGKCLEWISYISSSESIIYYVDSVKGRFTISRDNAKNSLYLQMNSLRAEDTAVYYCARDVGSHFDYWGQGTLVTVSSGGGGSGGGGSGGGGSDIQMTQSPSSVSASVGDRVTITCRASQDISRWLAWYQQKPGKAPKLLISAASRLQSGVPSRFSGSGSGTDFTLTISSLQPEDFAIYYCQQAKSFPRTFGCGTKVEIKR
light: EIVLTQSPGTLSLSPGERATLSCRASQSVSSNYLAWYQQKPGQAPRALIYAASNRAAGISDRFSGSGSGTDFTLTISRLEPEDFAVYFCQQYGSSPLTFGGGTKVEIKRTVAAPSVFIFPPSDEQLKSGTASVVCLLNNFYPREAKVQWKVDNALQSGNSQESVTEQDSKDSTYSLSSTLTLSKADYEKHKVYACEVTHQGLSSPVTKSFNRGEC
notes: IgG-scFv: IgG (CD40) 36F3, scFv (MSLN) 6F4; also called 6052-3
Kd (huMSLN(296-598) [5]): 700 pM
koff (huMSLN(296-598) [5]): 0.000533 s⁻¹
kon (huMSLN(296-598) [5]): 713000 M⁻¹ s⁻¹
Kd (cynoCD40(1-193) [6]): 3300 pM
koff (cynoCD40(1-193) [6]): 0.00035 s⁻¹
kon (cynoCD40(1-193) [6]): 105000 M⁻¹ s⁻¹
Kd (cynoMSLN(296-598)): 19000 pM
koff (cynoMSLN(296-598)): 0.00519 s⁻¹
kon (cynoMSLN(296-598)): 269000 M⁻¹ s⁻¹
Kd (huCD40(1-193) [7]): 2500 pM
koff (huCD40(1-193) [7]): 0.000556 s⁻¹
kon (huCD40(1-193) [7]): 218000 M⁻¹ s⁻¹
EC50 (nM), CD86 upregulation on human B cells with huMSLN-CHO cells (human CD40 [8]): 0.00445 nM
EC50 (nM), CD86 upregulation on human B cells with huMSLN-CHO cells (human CD40 [9]): 0.00316 nM

More lines, now with the values ahead:

Kd (huCD40(1-193) [1]): 600 pM
koff (huCD40(1-193) [1]): 0.000325 s⁻¹
kon (huCD40(1-193) [1]): 541000 M⁻¹ s⁻¹
Kd (huMSLN(296-598) [2]): 500 pM
koff (huMSLN(296-598) [2]): 0.000223 s⁻¹
kon (huMSLN(296-598) [2]): 451000 M⁻¹ s⁻¹
Kd (cynoCD40(1-193) [3]): 600 pM
koff (cynoCD40(1-193) [3]): 0.000404 s⁻¹
kon (cynoCD40(1-193) [3]): 669000 M⁻¹ s⁻¹
EC50 (nM), CD86 upregulation on human B cells in the presence of CHO cells expressing human mesothelin [4]: 0.006 nM
B2: Anti-CD40xMSLN IgG-Fab molecule 5973-1 (bispecific antibody)
chain 1: B1 chain 1
chain 2: B1 chain 2
chain 3: QVQLVESGGGLVKPGGSLRLSCAASEFTFSDYYMSWIRQAPGKGLEWVSYISRSGDTIYYADSVKGRFTISRDNAKNSLYLQMNGLRAEDTAVYYCARDLAAGATGGLDCWGQGTLVTVSS
chain 4: SYELTQPPSVSVSPGQTASITCSGERLGNKYICWYQQKPGQSPVLVIYQDFKRPSGIPERFSGSNSGITATLTISGTQAMDEADYYCQAWDSRTVVFGGGTKLTVLG

Kd (huCD40(1-193) [1]): 4000 pM
koff (huCD40(1-193) [1]): 0.000531 s⁻¹
kon (huCD40(1-193) [1]): 134000 M⁻¹ s⁻¹
Kd (huMSLN(296-598) [2]): 500 pM
koff (huMSLN(296-598) [2]): 0.00027 s⁻¹
kon (huMSLN(296-598) [2]): 568000 M⁻¹ s⁻¹
Kd (cynoCD40(1-193) [3]): 1700 pM
koff (cynoCD40(1-193) [3]): 0.000137 s⁻¹
kon (cynoCD40(1-193) [3]): 80600 M⁻¹ s⁻¹
EC50 (nM), CD86 upregulation on human B cells in the presence of CHO cells expressing human mesothelin [4]: 0.007 nM
B3: Anti-CD40xMSLN IgG-Fab molecule 5972-1 (bispecific antibody)
chain 1: B1 chain 1
chain 2: B1 chain 2
chain 3: QVQLQQSGPGLVKPSQTLSLTCAISGDSVSSSRTAWNWIRQSPSRGLEWLGRTYYRSKWYHDYSVSVKSRITIDPDTSKNQFSLQLNSVTPEDTAVYYCARGAAPFDYWGQGTLVTVSS
chain 4: EIVLTQSPGTLSLSPGERATLSCRASQSVSSNYLAWYQQKPGQAPRALIYAASNRAAGISDRFSGSGSGTDFTLTISRLEPEDFAVYFCQQYGSSPLTFGGGTKVEIKR

Kd (huCD40(1-193) [1]): 700 pM
koff (huCD40(1-193) [1]): 0.000423 s⁻¹
kon (huCD40(1-193) [1]): 600000 M⁻¹ s⁻¹
Kd (huMSLN(296-598) [2]): 1000 pM
koff (huMSLN(296-598) [2]): 0.000439 s⁻¹
kon (huMSLN(296-598) [2]): 424000 M⁻¹ s⁻¹
Kd (cynoCD40(1-193) [3]): 700 pM
koff (cynoCD40(1-193) [3]): 0.000526 s⁻¹
kon (cynoCD40(1-193) [3]): 752000 M⁻¹ s⁻¹
EC50 (nM), CD86 upregulation on human B cells in the presence of CHO cells expressing human mesothelin [4]: 0.003 nM
B4: Anti-CD40xMSLN IgG-Fab molecule 5987-1 (bispecific antibody)
chain 1: QVQLVQSGAEVTKPGASVKVSCKASGYTFAGYYMHWVRQAPGQGLEWMGWINPHSGGTNYAQKFQDRVTMTRDTSINTAYMELSRLRSDDTAVYYCARERISMVRGVGHNWFAPWGQGTLVTVSS
chain 2: DIQMTQSPSSLSASVGDRVTITCRASQDISNNLAWFQQKPGKPPKSLMYAASSLHSGVPSTFSGSGSGTDFTFTISSLQPEDFATYYCQQYNSYPLTFGGGTKVEIRR
chain 3: B1 chain 1
chain 4: B1 chain 2

Kd [10]: 6400 pM
koff [10]: 0.00188 s⁻¹
kon [10]: 294000 M⁻¹ s⁻¹
B6: anti-mesothelin antibody 7G11 (antibody, V domains shown)
VH: EVQLVESGGGLIQPGGSLRLSCAVSGFTVSSKFMTWVRQAPGKGLEWVSVIYSGGKTYYADSVKGRFTISRDNSKNTLYLQMNSLRAEDTAVYYCARDSGGWGYFDYWGQGTLVTVSS
VL: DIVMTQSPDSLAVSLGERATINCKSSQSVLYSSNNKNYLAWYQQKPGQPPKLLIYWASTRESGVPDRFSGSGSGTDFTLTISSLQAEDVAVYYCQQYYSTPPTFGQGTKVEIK
